This note sets out measurements from patent publication CN117736314A.

For test [1], the target named is SARS-CoV-2 Omicron BA.5 S蛋白 (病毒颗粒上) (SARS-CoV-2). The test is described as follows: cell-based or functional assay.
Test [2] has as its target SARS-CoV-2 Omicron(BA.2) S蛋白 (病毒颗粒上) (SARS-CoV-2). The test is described as follows: cell-based or functional assay.

As to LY-CoV1404(bebtelovimab) (antibody), the values for the IC 50 (ng/mL), live virus neutralisation, FFA on Vero cells in test [1] and in test [2] were 7.99 ng/mL and 11.2 ng/mL, respectively.
